In one test the target is human Fzd1 CRD (human, UniProt Q9UP38 105-232). Nature of the test: BLI. The protocol: (§1) C-terminal biotinylated Fzd CRD recombinant protein was diluted to 20 nM in the running buffer (PBS, 0.05% Tween-20, 0.5% BSA, pH 7.2) and captured to the SA biosensor until coupling length reached 0.2 nm. Following capture of the Fzd CRD, the SA biosensor with captured biotinylated-Fzd CRD was dipped into wells containing the relevant antibody fragment at 7 different concentrations (0, 1.37, 4.12, 12.4, 37, 111.1, 333.3, 1000 nM) in running buffer, plus a well with only running buffer as a reference channel. KD was determined by global fitting, 1:1 binding model according to manufacturer recommended settings.
(In BLI a coated tip is dipped into the sample, and binding shifts an interference pattern.)

The target of a further test is human Fzd2 CRD (human, UniProt Q14332 24-155). Nature of the test: BLI. How it is done: as §1
For the next test, the target named is T1, human Fzd3 CRD (human, UniProt Q9NPG1 23-138, limits assumed).
T1 construct: domain: cysteine rich domain (CRD)
T1 sequence (looked up): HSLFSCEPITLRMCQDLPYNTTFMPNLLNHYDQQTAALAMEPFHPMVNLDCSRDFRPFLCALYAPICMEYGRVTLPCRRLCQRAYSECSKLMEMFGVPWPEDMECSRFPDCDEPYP
Nature of the test: BLI. How it is done:
as §1

The target in a further test is T2, human Fzd4 CRD (human, UniProt Q9ULV1 37-163, limits assumed).
T2 construct: domain: cysteine rich domain (CRD)
T2 sequence (looked up): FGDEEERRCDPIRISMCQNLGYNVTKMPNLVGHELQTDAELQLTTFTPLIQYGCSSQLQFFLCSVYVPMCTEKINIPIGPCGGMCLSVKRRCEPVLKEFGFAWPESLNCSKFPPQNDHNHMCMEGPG
Nature of the test: BLI. How it is done: as §1

Another test concerns the target T3, human Fzd5 CRD (human, UniProt Q13467 27-152, limits assumed).
T3 construct: domain: cysteine rich domain (CRD)
T3 sequence (looked up): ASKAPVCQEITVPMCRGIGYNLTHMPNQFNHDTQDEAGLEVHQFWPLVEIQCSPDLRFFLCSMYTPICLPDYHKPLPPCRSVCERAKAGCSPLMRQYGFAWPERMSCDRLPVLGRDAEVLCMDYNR
Briefly: BLI. The protocol: as §1

Another test has as its target T4, human Fzd6 CRD (human, UniProt O60353 19-134, limits assumed).
T4 construct: domain: cysteine rich domain (CRD)
T4 sequence (looked up): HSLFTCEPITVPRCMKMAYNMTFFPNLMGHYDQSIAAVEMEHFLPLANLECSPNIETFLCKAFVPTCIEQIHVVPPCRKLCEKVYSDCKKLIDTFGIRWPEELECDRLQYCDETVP
Briefly: BLI. The protocol: as §1

A further test concerns the target human Fzd7 CRD (human, UniProt O75084 33-165). Briefly: BLI. How it is done:
as §1

The target in another test is T5, human Fzd9 CRD (human, UniProt O00144 23-157, limits assumed).
T5 construct: domain: cysteine rich domain (CRD)
T5 sequence (looked up): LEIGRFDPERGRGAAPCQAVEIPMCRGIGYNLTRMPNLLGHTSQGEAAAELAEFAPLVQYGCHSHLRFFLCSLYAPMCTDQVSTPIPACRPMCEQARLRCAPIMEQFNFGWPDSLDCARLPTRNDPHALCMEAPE
Briefly: BLI. The protocol: as §1

In another test the target is T6, human Fzd10 CRD (human, UniProt Q9ULW2 21-152, limits assumed).
T6 construct: domain: cysteine rich domain (CRD)
T6 sequence (looked up): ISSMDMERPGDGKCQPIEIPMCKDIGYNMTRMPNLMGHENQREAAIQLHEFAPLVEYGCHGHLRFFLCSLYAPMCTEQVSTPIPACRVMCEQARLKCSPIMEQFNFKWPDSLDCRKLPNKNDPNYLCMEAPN
Nature of the test: BLI. The protocol: as §1

A further test has as its target mouse Fzd1 CRD (mouse, UniProt O70421 100-227). Briefly: BLI. How it is done:
as §1

The next test deals with mouse Fzd2 CRD (mouse, UniProt Q9JIP6 29-160). Nature of the test: BLI. The protocol:
as §1

A further test concerns the target T7, mouse Fzd3 CRD (mouse, UniProt Q61086 23-138, limits assumed).
T7 construct: domain: cysteine rich domain (CRD)
T7 sequence (looked up): T1 sequence (looked up)
Nature of the test: BLI. How it is done: as §1

A further test addresses T8, mouse Fzd4 CRD (mouse, UniProt Q61088 37-163, limits assumed).
T8 construct: domain: cysteine rich domain (CRD)
T8 sequence (looked up): T2 sequence (looked up) with S15A, K97R, E105D, S106T
Briefly: BLI. The protocol:
as §1

The target of a further test is T9, mouse Fzd5 CRD (mouse, UniProt Q9EQD0 27-152, limits assumed).
T9 construct: domain: cysteine rich domain (CRD)
T9 sequence (looked up): T3 sequence (looked up) with Q51H, R115G
Briefly: BLI. How it is done: as §1

For the next test, the target named is T10, mouse Fzd6 CRD (mouse, UniProt Q61089 19-134, limits assumed).
T10 construct: domain: cysteine rich domain (CRD)
T10 sequence (looked up): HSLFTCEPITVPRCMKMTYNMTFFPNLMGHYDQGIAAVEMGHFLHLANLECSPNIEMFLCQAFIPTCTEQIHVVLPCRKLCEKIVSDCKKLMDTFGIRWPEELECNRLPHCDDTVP
Briefly: BLI. The protocol:
as §1

In a further test the target is mouse Fzd7 CRD (mouse, UniProt Q61090 33-165). Briefly: BLI. How it is done:
as §1

The target of the next test is T11, mouse Fzd9 CRD (mouse, UniProt Q9R216 24-158, limits assumed).
T11 construct: domain: cysteine rich domain (CRD)
T11 sequence (looked up): T5 sequence (looked up) with A14P, V20M, E50Q, A55S
Briefly: BLI. How it is done: as §1

For a further test, the target named is T12, mouse Fzd10 CRD (mouse, UniProt Q8BKG4 22-153, limits assumed).
T12 construct: domain: cysteine rich domain (CRD)
T12 sequence (looked up): T6 sequence (looked up) with M6L, I17V, M29T, G61S, N105K, K107R, R115S
Briefly: BLI. The protocol:
as §1

The target of test [1] is T13, human Fzd8 cysteine rich domain (CRD) (human, UniProt Q9H461 28-153, limits assumed).
T13 construct: domain: cysteine rich domain (CRD); C-terminally biotinylated in the BLI assay; also called hFzd8; hFzd8 (CRD)
T13 sequence (looked up): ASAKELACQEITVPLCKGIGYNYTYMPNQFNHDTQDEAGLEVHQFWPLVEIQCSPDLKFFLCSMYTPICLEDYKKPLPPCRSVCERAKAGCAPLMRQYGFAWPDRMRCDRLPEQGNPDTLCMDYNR
Nature of the test: BLI, Fab on captured biotinylated Fzd CRD; *** = 100 nM > KD >= 10 nM. How it is done: as §1

For another test, the target named is Fzd2 CRD (UniProt Q14332 24-155). Briefly: BLI (Octet Red 96), biotinylated Fzd2 CRD on streptavidin biosensor. The protocol: Binding kinetics of monospecific Fzd binders to either (CRD) or the extracellular hinge region (hinge) was determined by bio-layer interferometry (BLI) using Octet Red 96 (PALL ForteBio, Fremont, Calif.) instruments at 30° C., 1000 rpm with streptavidin (SA) biosensors. N-terminal biotinylated Fzd1 or Fzd2 CRD and Fzd1 or Fzd 2 hinge proteins were captured on the SA biosensor. Following capture of biotinylated-Fzd1 or Fzd2, the SA biosensor with captured […] was dipped into wells containing the relevant antibodies at 7 different concentrations in running buffer plus a well with only running buffer as a reference channel. KD was determined by global fitting. As shown in FIGS. 4A-4H these antibody fusion proteins only bound to either Fzd1 or Fzd2 protein with the hinge region, and not to the CRD domains alone.

Substitutions are numbered along the chain they refer to.

B1: 027S-E5 Fab (Fab, V domains shown)
VH: QVQLEQSGAEVKKPGASVKVSCKASGGTFSSYAISWVRQAPGQGLEWMGMINPSGGSTTYAQKFQGRVTMTRDTSTSTVYMELSSLRSEDTAVYYCARQAGLHCSSTSCYLGNWFDPWGQGTLVTVSS
VL: DIQMTQSPSSLSASVGDRVTITCRASQGITKSLAWYQQKPGKAPKLLIYAASNLATGVPSRFSGSGSGTDFTLTISSLQPEDFATYYCQQYNTFPITFGQGTRLEIKR
notes: Fab chains as printed, heavy chain with hexa-histidine tag; also called 027S-E05
In general, KD refers to the free concentration of one partner at which half of the binding sites on the other are occupied at equilibrium, for simple one-to-one binding. High values mean a looser complex, low ones a tighter complex. B1: the binding result with human Fzd1 CRD, with human Fzd2 CRD, with human Fzd3 CRD, in the test with human Fzd4 CRD, with human Fzd5 CRD and with human Fzd6 CRD was “no binding (tested: 1000 nM)” throughout. For the same molecule, the binding result with human Fzd7 CRD, with human Fzd9 CRD, with human Fzd10 CRD, in the test with mouse Fzd1 CRD, with mouse Fzd2 CRD and with mouse Fzd3 CRD was “no binding (tested: 1000 nM)” each time. Also, the binding result in the test with mouse Fzd4 CRD, with mouse Fzd5 CRD, in the test with mouse Fzd6 CRD, in the test with mouse Fzd7 CRD, with mouse Fzd9 CRD and in the test with mouse Fzd10 CRD was “no binding (tested: 1000 nM)” each time. This molecule showed a dissociation constant (KD) in test [1] of 10 to 100 nM.

B2: 031S-B02 Fab (Fab, V domains shown)
VH: EVQLLESGGGLVQPGGSLRLSCAASGFTFSSYWMSWVRQAPGKGLEWVSAIGGSGANAYYADSVKGRFTISRDNSKNTLYLQMNSLRAEDTAVYYCVRDTNWAFDLWGQGTMVTVSS
VL: EIVMTQSPATLSVSPGERATLSCRASQSVSGSYLAWYQQKPGQAPRLLIYGASTRATGIPARFSGSGSGTEFTLTISSLQSEDFAVYYCQQYGSSPLTFGQGTKVEIK
notes: also called 31SB2
With B2, the binding result in the test with Fzd2 CRD is recorded as “no binding”.

These data come from patent publication US20220275095A1 (SURROZEN OPERATING, published 2022).
